Assays:
αvβ3 integrin (human) [1] = target: αvβ3 integrin (human) (UniProt P06756); assay: attachment of αvβ3-expressing WM35 cells to wells coated at 1 nmole/well, Cell Counting Kit-8
αvβ3 integrin (human) [2] = target: αvβ3 integrin (human) (UniProt P06756); assay: cell-based or functional assay

Sequence of UniProt P06756 (P06756 31-1048, chain 1 of 2): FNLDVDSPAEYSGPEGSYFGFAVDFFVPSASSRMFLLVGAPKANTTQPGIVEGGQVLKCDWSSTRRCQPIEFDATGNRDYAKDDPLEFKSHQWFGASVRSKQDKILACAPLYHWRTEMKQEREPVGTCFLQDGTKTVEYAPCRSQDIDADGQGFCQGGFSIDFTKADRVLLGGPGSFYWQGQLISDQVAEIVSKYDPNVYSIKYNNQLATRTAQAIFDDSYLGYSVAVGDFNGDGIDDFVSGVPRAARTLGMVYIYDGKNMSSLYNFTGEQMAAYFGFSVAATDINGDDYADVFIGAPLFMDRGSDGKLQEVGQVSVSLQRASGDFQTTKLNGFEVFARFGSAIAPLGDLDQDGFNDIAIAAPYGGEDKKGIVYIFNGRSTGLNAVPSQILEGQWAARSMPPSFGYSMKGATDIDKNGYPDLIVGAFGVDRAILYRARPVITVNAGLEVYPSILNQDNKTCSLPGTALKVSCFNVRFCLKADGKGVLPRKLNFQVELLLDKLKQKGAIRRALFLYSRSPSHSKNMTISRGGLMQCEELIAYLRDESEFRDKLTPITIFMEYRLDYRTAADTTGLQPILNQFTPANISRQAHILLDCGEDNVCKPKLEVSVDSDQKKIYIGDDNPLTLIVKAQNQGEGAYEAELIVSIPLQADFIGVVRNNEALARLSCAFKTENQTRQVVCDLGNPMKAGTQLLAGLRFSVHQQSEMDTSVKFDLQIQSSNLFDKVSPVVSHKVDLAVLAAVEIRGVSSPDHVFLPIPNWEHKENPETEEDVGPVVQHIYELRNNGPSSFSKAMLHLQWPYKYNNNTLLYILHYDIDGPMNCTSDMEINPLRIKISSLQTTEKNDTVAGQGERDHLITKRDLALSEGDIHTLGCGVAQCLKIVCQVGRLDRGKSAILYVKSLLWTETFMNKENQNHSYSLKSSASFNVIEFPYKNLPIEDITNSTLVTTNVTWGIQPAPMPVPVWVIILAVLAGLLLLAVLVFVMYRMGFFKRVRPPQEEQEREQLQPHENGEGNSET
Sequence of UniProt P06756 (P05106 27-788, chain 2 of 2, further chain): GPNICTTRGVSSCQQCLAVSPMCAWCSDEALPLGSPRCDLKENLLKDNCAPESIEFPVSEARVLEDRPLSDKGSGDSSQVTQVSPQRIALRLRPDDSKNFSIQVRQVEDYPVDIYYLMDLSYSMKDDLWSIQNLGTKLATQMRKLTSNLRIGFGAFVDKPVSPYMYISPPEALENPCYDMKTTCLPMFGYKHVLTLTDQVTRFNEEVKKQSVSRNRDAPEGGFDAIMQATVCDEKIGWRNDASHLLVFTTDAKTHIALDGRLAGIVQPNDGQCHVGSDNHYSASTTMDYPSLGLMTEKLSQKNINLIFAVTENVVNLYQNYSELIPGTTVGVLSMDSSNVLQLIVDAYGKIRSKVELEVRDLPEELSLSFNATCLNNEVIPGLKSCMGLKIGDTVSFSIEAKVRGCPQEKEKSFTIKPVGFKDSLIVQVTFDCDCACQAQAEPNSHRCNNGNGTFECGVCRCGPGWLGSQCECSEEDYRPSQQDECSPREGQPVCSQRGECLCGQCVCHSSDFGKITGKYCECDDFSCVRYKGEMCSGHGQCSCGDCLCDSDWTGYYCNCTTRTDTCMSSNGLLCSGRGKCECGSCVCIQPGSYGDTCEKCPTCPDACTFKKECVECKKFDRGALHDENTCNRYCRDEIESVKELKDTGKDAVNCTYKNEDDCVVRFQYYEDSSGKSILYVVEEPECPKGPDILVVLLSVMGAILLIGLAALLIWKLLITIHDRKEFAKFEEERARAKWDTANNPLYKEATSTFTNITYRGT

Substance	percent of cells attached (100% = gelatin-coated wells) (αvβ3 integrin (human) [1]) [%]	HUVEC attachment to coated wells (100% = gelatin-coated wells) (αvβ3 integrin (human) [2]) [%]	direct binding of [125I]-RGD-endostatin to HUVEC (pmole per 10^6 cells) (αvβ3 integrin (human) [2]) [pmol]	increase of HUVEC attachment over native endostatin (αvβ3 integrin (human) [2]) [%]
human endostatin (from UniProt P39060 1572-1754)	18	–	–	–
RGD-human endostatin (from UniProt P39060 1572-1754)	60	80	1.2	40
human endostatin-RGD (from UniProt P39060 1572-1754)	–	80	–	40
